# Source: CN109232738A (GENSCRIPT NANJING CO LTD, dated 2019)
# Key:
# [1] = target: T1, 人OX40 expressed on cells (表达OX40的CHO细胞; OX40过表达的功能细胞系) (human, UniProt P43489 29-277); assay: cell-based or functional assay
# T1 sequence (looked up): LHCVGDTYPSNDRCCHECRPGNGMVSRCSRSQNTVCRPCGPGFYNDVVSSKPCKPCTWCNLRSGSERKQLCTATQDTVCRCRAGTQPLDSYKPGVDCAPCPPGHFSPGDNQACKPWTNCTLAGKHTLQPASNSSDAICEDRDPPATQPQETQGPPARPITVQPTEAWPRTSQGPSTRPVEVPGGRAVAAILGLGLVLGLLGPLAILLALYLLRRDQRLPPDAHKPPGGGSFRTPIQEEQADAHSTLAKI
# [2] = target: T1, 人OX40 expressed on cells (表达OX40的CHO细胞; …); assay: flow cytometry on OX40-expressing CHO cells, 5 μg/ml antibody
Binder,"inhibition of IL-8 secretion by OX40 over-expressing functional cell line, IC50 [1]",结合信号值 relative to control sample (fold) [2],"inhibition of IL-8 secretion by OX40 over-expressing functional cell line, given as EC50 [1]","IL-8 secretion by OX40 over-expressing functional cell line (activation), EC50 [1]"
"83C2H3B6 (antibody, V domains shown) VH: QVQLKQSGPGLVQPSQSLSITCTVSGFSLTSYGVHWVRQSPGKGLEWLGVIWSGGSTDYNAAYISRLSISKDNSKSQVFFKMNSLQADDTATYYCANYDYDVPYWGQGTLVTVSA VL: DIQMTQSPASQSASLGESVTITCLASQTIGTWLAWYQQKPGKSPQLLIYAATSLADGVPSRFSGSGSGTKFSFKISSLQAEDFVSYYCQQLYSTPFTFGSGTKLEIK",68 nM,200 fold,,
"51E2G12D6 (antibody, V domains shown) VH: QVTLKESGPGILQPSQTLSLTCSFSGFSLDTSGMGVTWIRQPSGKGLEWLAHIYWDDDKHYNPSLKSRLTISKDTSSTQVLLKITSVVTADTATYYCARRALGAMDYWGQGTSVTVSS VL: DIQMTQTTSSLSASLGDRVTISCRASQDISHYLNWYQQKPDGTVKLLIYYTSTLHSGVPSRFSGSGSGTDYSLTISNLEQEDIATYFCQQGKTLPPTFGAGTELELK",1.45 nM,200 fold,,
"68G8C4B12 (antibody, V domains shown) VH: QVQLKESGPGLVAPSQSLSITCTVSGFSLTNYGVHWVRQPPGKGLEWLGVIWDDGNTNYNSALMSRLSINKDNSKSQVFVTMNSLQIDDTAMYYCALFDGYYGWFAYWGQGTLVTVSS VL: DIQMTQTTSSLSASLGDRVTISCRASQDISFYLNWYQQKPDGTVKLLIYYTSRLHSGVPSRFSGSGSGTDYSLTISNLEQEDFATYFCQQGHTLPWTFGGGSKLEIK",,200 fold,2.36 nM,
"99A2A8D4E8 (antibody, V domains shown) VH: QIQLVQSGPELKKPGETVKISCKASGYTFTDYSMHWVKQAPGKGLKWMGWISTETGEPTYADDFKGRFAFSLETSASTAYLQIKNLKNEDTASYFCARVRPWYLAVWGAGTTVTVSS VL: DIQMTQTTSSLSASLGDRVTISCRASQDISNYLNWYQQKPDGTVKLLIYYTSRLYSGVPSRFSGSGSGADYSLTVSNLEQEDIATYFCQQANTLPLTFGAGTKLELK",,200 fold,,0.58 nM
"17B12G2C3 (antibody, V domains shown) VH: EVQLQQSGPELVKPGASVKISCKASGYTFTDYYMNWVKQSHGKSLEWIGDINPNNGGTNYNQKFKGKATLTVDKSSSTTYMELRSLTSEDSAVYYCARSGGWLLQDYWGQGTTLTVSS VL: DIQMTQTTSSLSASLGDRVTITCRASLDISNYLNWYQQKPDGTVKFLIYYTSRLHSGVPSRFSGSGSGTDYSLTISNLEQEDIATYFCQQGNTLPYTFGGGTKLEIK",8.23 nM,200 fold,,
"9G4C8B11 (antibody, V domains shown) VH: DVQLQESGPGLVKPSQSLSLTCSVTGYSITSGYYWNWIRQFPGNKLEWMGYISYDGSNNYNPSLKNRISITRDTSKNQFFLKLNSVTTEDTATYYCARDRAYYSNYVGWYFDVWGTGTTVTVSS VL: DIVLTQSPASLAVSLGQRATISCRASESVDNYGNSFMHWYQQTPGQPPKLLIYRASNLESGIPAKFSGSGSRTDFTLTINPVEADDVATYYCQQSNEDPLTFGAGTKLELK",,200 fold,,6.5 nM
"OX40L (ligand, UniProt P23510 51-183, looked up) QVSHRYPRIQSIKVQFTEYKKEKGFILTSQKEDEIMKVQNNSVIINCDGFYLISLKGYFSQEVNISLHYQKDEEPLFQLKKVRSVNSLMVASLTYKDKVYLNVTTDNTSLDDFHVNGGELILIHQNPGEFCVL",,,,2.18 nM
